Assay results published in patent US20200087347 (published 2020).
[ ]: non-standard residue; d: D form. NMeK = CN[C@@H](CCCCN)C(=O)O

Assays:
Assay in all cases: competition
integrin αvβ5 = molecular target: T1, integrin αvβ5 (human, UniProt P06756)
T1 chain 1: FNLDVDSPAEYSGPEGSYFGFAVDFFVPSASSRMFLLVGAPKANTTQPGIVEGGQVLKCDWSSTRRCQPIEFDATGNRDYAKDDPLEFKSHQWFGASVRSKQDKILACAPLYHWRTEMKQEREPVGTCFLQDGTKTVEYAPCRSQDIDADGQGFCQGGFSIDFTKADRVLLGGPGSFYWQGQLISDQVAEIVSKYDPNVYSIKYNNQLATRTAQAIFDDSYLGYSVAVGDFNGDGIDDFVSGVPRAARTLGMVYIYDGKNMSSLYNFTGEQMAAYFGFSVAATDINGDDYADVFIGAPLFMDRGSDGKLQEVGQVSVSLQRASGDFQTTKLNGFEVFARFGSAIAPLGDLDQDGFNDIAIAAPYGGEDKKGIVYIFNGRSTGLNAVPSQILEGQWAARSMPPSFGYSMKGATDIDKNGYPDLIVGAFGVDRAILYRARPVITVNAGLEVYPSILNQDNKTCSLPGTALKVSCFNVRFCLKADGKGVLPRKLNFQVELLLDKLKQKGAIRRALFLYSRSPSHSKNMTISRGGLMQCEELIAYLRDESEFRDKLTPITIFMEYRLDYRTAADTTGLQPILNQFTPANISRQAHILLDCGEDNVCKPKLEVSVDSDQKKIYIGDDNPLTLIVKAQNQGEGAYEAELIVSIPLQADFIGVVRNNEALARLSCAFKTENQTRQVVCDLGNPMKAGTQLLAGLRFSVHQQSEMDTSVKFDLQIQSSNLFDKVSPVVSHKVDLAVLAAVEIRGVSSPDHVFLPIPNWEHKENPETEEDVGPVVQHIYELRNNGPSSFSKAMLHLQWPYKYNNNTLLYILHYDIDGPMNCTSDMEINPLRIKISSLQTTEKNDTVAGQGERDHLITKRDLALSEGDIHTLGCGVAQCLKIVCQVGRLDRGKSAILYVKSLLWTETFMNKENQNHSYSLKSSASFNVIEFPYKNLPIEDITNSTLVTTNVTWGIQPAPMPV
T1 chain 2: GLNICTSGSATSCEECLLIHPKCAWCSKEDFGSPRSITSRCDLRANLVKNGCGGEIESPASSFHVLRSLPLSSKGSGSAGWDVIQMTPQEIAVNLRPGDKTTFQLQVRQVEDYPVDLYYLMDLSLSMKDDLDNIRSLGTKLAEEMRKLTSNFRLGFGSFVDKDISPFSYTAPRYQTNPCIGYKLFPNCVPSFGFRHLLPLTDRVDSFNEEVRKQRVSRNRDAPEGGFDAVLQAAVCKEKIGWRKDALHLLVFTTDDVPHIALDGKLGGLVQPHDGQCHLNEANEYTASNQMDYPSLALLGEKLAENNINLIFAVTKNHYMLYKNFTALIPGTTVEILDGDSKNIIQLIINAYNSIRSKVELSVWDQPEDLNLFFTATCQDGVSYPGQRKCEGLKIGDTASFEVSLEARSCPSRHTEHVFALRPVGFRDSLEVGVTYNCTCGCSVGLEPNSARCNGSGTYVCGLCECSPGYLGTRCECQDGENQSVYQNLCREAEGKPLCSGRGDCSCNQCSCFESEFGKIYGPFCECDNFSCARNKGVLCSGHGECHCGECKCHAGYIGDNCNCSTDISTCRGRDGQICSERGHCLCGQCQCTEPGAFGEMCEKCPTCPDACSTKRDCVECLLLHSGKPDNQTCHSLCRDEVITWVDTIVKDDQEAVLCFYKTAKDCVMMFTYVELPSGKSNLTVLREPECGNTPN

integrin α5β1 = integrin α5β1 (human, UniProt P08648)
Sequence of integrin α5β1 (P08648 42-1049, chain 1 of 2): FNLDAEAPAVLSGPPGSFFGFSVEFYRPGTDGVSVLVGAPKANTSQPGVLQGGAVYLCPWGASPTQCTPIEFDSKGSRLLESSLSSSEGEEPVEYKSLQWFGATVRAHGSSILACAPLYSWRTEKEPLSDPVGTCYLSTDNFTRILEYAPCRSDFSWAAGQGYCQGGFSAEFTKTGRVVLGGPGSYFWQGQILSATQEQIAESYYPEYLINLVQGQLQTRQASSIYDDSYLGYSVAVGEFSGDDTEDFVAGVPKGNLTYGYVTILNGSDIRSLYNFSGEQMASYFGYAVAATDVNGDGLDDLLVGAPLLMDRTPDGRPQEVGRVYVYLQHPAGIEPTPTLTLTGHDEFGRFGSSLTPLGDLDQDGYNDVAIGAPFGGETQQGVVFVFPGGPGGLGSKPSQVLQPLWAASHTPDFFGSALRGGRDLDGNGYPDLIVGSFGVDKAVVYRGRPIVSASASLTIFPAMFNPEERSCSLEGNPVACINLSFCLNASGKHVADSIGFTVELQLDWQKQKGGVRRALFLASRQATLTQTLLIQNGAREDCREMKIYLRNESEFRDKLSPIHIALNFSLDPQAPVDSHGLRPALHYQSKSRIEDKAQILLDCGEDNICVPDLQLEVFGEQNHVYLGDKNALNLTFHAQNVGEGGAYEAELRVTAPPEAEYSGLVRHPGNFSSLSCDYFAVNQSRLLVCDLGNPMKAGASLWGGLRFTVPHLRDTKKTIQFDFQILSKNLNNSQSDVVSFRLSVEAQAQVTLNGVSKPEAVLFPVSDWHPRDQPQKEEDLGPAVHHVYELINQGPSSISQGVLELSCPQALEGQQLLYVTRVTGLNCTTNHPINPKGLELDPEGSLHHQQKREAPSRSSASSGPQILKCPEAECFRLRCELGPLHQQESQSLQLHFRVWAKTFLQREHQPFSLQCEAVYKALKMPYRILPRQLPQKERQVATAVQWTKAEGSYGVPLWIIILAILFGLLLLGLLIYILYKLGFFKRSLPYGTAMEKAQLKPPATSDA
Sequence of integrin α5β1 (chain, as listed by the source, chain 2 of 2): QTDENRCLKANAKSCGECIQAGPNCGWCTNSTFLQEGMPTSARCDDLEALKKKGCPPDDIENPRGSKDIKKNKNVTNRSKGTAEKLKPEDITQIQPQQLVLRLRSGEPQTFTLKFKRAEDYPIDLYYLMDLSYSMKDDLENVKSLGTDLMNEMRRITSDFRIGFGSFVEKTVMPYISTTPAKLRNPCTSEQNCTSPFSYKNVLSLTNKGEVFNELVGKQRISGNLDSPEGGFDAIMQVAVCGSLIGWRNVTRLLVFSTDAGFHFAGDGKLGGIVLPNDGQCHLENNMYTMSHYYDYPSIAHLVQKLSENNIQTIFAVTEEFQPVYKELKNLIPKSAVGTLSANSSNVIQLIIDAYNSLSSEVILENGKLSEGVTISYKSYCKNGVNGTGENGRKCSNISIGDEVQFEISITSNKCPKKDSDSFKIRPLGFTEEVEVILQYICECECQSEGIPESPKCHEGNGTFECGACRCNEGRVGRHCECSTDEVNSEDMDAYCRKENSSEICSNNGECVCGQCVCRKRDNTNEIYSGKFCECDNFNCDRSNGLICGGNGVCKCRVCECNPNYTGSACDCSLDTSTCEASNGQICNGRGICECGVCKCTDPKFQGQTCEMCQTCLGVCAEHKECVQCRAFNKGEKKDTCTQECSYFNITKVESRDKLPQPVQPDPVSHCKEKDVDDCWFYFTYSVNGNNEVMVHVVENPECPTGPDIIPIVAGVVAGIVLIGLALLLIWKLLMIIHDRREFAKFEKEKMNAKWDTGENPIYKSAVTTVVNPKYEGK

integrin αvβ8 = molecular target: T2, integrin αvβ8 (human, UniProt P06756)
T2 chain 1: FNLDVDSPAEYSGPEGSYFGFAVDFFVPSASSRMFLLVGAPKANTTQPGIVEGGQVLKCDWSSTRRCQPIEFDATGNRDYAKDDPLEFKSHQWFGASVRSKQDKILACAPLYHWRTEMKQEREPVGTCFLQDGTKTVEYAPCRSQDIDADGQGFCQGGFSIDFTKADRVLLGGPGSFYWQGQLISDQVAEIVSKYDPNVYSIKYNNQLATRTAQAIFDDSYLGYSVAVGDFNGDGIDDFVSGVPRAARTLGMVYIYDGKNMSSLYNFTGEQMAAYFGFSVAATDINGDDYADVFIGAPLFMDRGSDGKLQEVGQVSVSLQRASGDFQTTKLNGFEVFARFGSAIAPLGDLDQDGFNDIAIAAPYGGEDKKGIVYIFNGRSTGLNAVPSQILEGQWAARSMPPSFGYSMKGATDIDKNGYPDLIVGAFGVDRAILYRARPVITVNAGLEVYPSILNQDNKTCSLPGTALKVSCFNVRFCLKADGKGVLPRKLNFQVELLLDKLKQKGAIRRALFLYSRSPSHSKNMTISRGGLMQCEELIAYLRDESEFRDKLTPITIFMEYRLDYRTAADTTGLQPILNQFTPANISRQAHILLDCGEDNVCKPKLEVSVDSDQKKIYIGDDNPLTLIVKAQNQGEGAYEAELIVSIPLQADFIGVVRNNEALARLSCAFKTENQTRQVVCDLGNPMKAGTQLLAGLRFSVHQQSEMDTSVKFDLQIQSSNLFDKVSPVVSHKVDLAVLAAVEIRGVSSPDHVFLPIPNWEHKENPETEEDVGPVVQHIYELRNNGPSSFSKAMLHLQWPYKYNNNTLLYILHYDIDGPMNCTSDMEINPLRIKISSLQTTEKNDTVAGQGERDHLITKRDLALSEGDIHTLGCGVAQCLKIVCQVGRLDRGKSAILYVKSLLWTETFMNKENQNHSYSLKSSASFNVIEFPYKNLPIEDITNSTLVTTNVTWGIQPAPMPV
T2 chain 2: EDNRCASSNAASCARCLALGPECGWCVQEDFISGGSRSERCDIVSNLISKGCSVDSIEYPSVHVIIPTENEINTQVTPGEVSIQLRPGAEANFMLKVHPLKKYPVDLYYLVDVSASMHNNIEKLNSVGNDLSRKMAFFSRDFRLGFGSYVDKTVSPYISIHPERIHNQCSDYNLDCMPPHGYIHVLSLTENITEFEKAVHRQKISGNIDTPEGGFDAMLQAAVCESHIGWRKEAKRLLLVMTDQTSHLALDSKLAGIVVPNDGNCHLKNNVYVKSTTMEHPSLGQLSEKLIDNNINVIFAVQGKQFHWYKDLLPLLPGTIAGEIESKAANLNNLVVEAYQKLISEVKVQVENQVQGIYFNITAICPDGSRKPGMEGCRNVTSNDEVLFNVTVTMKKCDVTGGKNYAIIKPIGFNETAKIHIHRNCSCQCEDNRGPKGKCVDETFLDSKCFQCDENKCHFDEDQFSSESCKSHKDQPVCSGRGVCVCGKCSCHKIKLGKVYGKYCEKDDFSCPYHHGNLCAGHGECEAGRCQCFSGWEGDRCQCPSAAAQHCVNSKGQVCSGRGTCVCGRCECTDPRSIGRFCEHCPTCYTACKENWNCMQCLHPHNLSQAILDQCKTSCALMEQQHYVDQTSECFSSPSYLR

integrin αIIbβ3 = integrin αIIbβ3 (human, UniProt P08514)
integrin αvβ6 = molecular target: T3, integrin αvβ6 (human, UniProt P06756)
T3 chain 1: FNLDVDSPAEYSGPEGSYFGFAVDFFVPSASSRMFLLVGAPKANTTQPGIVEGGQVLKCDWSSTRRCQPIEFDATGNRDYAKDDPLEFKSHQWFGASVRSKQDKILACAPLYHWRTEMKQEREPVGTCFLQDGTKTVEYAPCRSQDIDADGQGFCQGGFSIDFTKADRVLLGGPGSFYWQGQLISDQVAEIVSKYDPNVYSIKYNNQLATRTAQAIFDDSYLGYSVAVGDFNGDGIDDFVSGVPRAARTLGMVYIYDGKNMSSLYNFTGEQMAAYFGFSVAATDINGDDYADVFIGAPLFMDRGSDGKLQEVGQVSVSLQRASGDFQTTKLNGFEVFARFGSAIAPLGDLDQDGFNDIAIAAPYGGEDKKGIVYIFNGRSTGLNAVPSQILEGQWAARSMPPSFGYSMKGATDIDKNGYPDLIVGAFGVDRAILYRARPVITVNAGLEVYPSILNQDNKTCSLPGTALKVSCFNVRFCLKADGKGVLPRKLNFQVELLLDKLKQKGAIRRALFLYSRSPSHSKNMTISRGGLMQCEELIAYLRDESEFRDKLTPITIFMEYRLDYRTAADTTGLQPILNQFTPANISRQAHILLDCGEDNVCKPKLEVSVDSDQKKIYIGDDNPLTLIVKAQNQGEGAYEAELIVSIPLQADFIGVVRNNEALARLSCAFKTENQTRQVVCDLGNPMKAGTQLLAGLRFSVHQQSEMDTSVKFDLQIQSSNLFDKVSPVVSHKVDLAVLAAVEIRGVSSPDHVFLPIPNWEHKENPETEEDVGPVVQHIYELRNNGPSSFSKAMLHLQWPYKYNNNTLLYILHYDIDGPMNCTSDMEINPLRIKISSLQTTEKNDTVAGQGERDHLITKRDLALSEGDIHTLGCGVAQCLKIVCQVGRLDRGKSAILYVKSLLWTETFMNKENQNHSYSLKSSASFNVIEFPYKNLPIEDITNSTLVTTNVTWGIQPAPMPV
T3 chain 2: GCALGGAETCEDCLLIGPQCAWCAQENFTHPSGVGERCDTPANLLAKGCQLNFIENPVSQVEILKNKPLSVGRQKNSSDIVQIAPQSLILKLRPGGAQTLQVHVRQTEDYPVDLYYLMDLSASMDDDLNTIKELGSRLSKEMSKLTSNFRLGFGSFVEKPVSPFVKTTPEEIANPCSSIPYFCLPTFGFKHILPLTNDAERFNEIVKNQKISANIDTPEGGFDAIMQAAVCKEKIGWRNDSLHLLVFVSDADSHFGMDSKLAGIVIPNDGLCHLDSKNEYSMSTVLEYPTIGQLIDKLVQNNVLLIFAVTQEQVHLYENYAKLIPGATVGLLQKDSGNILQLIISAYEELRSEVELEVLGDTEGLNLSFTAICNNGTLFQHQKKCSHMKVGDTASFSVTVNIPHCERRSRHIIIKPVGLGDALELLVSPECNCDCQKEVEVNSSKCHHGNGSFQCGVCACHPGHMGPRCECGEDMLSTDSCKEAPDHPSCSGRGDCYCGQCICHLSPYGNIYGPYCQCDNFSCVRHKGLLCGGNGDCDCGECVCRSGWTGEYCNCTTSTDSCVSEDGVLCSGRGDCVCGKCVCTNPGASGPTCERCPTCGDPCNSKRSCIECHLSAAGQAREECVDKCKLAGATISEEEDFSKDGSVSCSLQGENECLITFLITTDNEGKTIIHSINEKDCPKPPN

integrin αvβ3 = molecular target: T4, integrin αvβ3 (human, UniProt P06756)
T4 chain 1: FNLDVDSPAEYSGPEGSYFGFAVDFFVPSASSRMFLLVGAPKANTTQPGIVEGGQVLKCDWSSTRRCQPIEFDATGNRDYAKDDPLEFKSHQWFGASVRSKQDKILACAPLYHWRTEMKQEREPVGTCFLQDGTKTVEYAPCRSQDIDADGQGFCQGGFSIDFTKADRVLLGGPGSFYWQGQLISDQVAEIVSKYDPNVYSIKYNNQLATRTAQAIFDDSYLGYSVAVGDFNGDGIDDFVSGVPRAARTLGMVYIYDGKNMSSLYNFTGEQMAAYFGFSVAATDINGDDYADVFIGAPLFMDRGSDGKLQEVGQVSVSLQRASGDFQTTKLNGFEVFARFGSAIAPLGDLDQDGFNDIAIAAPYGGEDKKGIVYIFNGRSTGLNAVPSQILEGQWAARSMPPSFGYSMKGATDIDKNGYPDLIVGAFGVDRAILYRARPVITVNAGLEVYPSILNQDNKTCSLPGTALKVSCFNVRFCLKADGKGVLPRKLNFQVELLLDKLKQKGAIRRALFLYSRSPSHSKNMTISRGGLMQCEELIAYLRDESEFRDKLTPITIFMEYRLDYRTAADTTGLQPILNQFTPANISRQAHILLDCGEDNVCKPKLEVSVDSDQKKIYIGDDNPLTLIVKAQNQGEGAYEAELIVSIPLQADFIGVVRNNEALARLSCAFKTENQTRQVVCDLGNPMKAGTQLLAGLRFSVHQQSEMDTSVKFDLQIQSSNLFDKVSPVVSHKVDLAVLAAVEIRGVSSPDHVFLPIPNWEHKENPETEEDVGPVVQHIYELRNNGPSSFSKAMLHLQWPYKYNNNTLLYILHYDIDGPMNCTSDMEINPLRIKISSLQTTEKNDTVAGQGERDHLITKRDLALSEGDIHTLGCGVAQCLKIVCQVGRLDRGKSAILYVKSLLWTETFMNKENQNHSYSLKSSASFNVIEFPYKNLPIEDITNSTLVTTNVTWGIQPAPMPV
T4 chain 2: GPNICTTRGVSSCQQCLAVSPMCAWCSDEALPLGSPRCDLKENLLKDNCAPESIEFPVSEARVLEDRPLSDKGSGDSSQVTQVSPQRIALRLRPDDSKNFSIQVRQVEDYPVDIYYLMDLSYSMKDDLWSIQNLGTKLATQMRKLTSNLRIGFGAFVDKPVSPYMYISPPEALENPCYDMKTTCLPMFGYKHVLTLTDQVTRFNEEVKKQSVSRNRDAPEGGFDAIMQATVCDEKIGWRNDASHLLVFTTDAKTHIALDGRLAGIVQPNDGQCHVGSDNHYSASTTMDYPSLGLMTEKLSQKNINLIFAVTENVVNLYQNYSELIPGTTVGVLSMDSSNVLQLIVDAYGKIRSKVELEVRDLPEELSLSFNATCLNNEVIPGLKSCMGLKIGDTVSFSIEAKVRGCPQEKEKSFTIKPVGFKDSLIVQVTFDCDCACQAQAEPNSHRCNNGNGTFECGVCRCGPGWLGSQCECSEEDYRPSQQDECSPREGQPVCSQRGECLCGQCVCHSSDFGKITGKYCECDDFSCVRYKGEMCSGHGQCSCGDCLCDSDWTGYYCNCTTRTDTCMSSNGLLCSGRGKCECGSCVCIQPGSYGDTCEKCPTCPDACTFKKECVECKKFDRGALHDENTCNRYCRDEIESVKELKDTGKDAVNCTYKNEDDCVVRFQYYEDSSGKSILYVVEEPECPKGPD

IC50 (integrin αvβ5): > 1000 nM | IC50 (integrin α5β1): > 1000 nM | IC50 (integrin αvβ8): 6.5 nM | IC50 (integrin αIIbβ3): > 1000 nM | IC50 (integrin αvβ6): 201 nM | IC50 (integrin αvβ3): > 1000 nM
B1: Compound 8 (peptide)
chain: cyclo(RGDL[dP][NMeK]GL)
SMILES: CC(C)C[C@@H]1NC(=O)CNC(=O)[C@H](CCCCN)N(C)C(=O)[C@H]2CCCN2C(=O)[C@H](CC(C)C)NC(=O)[C@H](CC(=O)O)NC(=O)CNC(=O)[C@H](CCCNC(=N)N)NC1=O
